Experimental data published in publication PMC4370504, “Structural Basis for Ubiquitin Recognition by Ubiquitin-Binding Zinc Finger of FAAP20” (PLoS ONE, 2015).
One block for each binder: values may come before it.

Columns and labels:
Assay in all cases: SPR; Biacore T200, Sensor Chip C1; GST-fused Ub or Ub2 captured by immobilised anti-GST antibodies (200-400 RU); FAAP20-UBZ injected 60 s at 10 uL/min; 25°C, HBS-P (10 mM HEPES-Na pH 7.4, 150 mM NaCl, 0.05% surfactant P20); equilibrium fit, 1:1 model; triplicate
Conditions in all cases: both partners purified
[1] = biological target: T1, GST-fused K63-linked diubiquitin (K63-Ub2) (UniProt P0CG48 1-76; P0CG48 1-76, K63R | additional aspartate residue at its C-terminal extremity (D77), K63-linked to the other Ub chain | K63-linked to the other Ub chain)
T1 construct: ubiquitin carrying the K63R mutation, GST-fused; ubiquitin with an additional aspartate residue at its C-terminal extremity (D77 Ub); Surmised: Gly76 of GST-K63R Ub (distal) is joined by an isopeptide bond to Lys63 of D77 Ub (proximal); also called K63-linked Ub2; GST-fused K63-Ub2

[2] = biological target: T2, GST-fused M1-linked diubiquitin (M1-Ub2) (UniProt P0CG48 1-76; P0CG48 1-76)
T2 construct: ubiquitin, first (distal) moiety of the M1-linked (linear, head-to-tail) diubiquitin; ubiquitin, second (proximal) moiety, its Met1 joined to Gly76 of the first; Written as one chain of two ubiquitins, as M1-linked; also called M1-linked Ub2; GST-fused M1-Ub2; source: purified (Glutathione Sepharose FF, ResourceQ)

[3] = biological target: T3, GST-fused K48-linked diubiquitin (K48-Ub2) (UniProt P0CG48 1-76; P0CG48 1-76, K48R | additional aspartate residue at its C-terminal extremity (D77), K48-linked to the other Ub chain | K48-linked to the other Ub chain)
T3 construct: ubiquitin carrying the K48R mutation, GST-fused; ubiquitin with an additional aspartate residue at its C-terminal extremity (D77 Ub); Surmised: Gly76 of GST-Ub K48R (distal) is joined by an isopeptide bond to Lys48 of D77 Ub (proximal); also called K48-linked Ub2; GST-fused K48-Ub2

[4] = biological target: T1, GST-fused K63-linked diubiquitin …; remark: listed apart in the source
GST-fused ubiquitin (Ub) [5] = biological target: T4, GST-fused ubiquitin (Ub) (UniProt P0CG48 1-76)
T4 construct: ubiquitin (Ub), the mature product of a ubiquitin precursor; Captured on the chip by anti-GST antibodies; source: purified (Glutathione Sepharose FF, ResourceQ)

GST-fused ubiquitin (Ub) [6] = biological target: T4, GST-fused ubiquitin (Ub); remark: listed apart in the source

B1: FAAP20-UBZ (UBZ domain of FAAP20, residues 142-180), wild type (domain or fragment, human, UniProt Q6NZ36 142-180, looked up)
chain: AALRSCPMCQKEFAPRLTQLDVDSHLAQCLAESTEDVTW
notes: also called FAAP20-UBZ(wt); WT; source: E. coli Rosetta (DE3), purified (Glutathione Sepharose FF, ResourceQ, HRV3C cleavage, Superdex75); not shown: GST, N-terminal, cleaved
- stoichiometry N [1]: 2
- Kd [2]: 22.3 µM
- Kd [3]: 39.1 µM
- Kd [4]: 35.9 µM
- Kd (GST-fused ubiquitin (Ub) [5]): 19.9 µM

B3: FAAP20-UBZ L161A (domain or fragment, human, UniProt Q6NZ36 142-180, looked up)
chain: AALRSCPMCQKEFAPRLTQADVDSHLAQCLAESTEDVTW
notes: human FAAP20, UBZ domain, residues 142-180; source: purified similarly to wild-type FAAP20-UBZ (E. coli Rosetta (DE3)); not shown: GST, N-terminal, cleaved
- Kd (GST-fused ubiquitin (Ub) [6]): 125 µM

More lines, in order of falling Kd (GST-fused ubiquitin (Ub) [6]), values ahead:

- Kd (GST-fused ubiquitin (Ub) [6]): 218 µM
B2: FAAP20-UBZ D177A (domain or fragment, human, UniProt Q6NZ36 142-180, looked up)
chain: AALRSCPMCQKEFAPRLTQLDVDSHLAQCLAESTEAVTW
notes: as for B3

- Kd (GST-fused ubiquitin (Ub) [6]): 113 µM
B4: FAAP20-UBZ A172L (domain or fragment, human, UniProt Q6NZ36 142-180, looked up)
chain: AALRSCPMCQKEFAPRLTQLDVDSHLAQCLLESTEDVTW
notes: as for B3
